Assay results published in the array DNA melting data of Ke et al..

Assay: melting temperature; melt of duplexes
Conditions: sodium 0.0675 M; strand 1 µM

| Substance | Tm [°C] |
| --- | --- |
| CGACGTGCGTCATGTGCTG+CAGCACATAGTGCACGTCG ((((((((...((((((((+))))))))...)))))))) | 45.9 |
| CGACGTGCGTCATGTGCTG+CAGCACATATGGCACGTCG ((((((((...((((((((+))))))))...)))))))) | 49.8 |
| CGACGTGCGTCATGTGCTG+CAGCACATCAAGCACGTCG ((((((((.(.((((((((+)))))))).).)))))))) | 52.6 |
| CGACGTGCGTCATGTGCTG+CAGCACATCATGCACGTCG ((((((((.(.((((((((+)))))))).).)))))))) | 50.8 |
| CGACGTGCGTCATGTGCTG+CAGCACATCCGGCACGTCG ((((((((...((((((((+))))))))...)))))))) | 48.7 |
| CGACGTGCGTCATGTGCTG+CAGCACATCCTGCACGTCG ((((((((...((((((((+))))))))...)))))))) | 48.9 |
| CGACGTGCGTCATGTGCTG+CAGCACATGACGCACGTCG (((((((((((((((((((+))))))))))))))))))) | 66.4 |
| CGACGTGCGTCATGTGCTG+CAGCACATGCCGCACGTCG (((((((((.(((((((((+))))))))).))))))))) | 59.9 |
| CGACGTGCGTCATGTGCTG+CAGCACATGGAGCACGTCG ((((((((..(((((((((+)))))))))..)))))))) | 58.4 |
| CGACGTGCGTCATGTGCTG+CAGCACATGTGGCACGTCG ((((((((..(((((((((+)))))))))..)))))))) | 54.8 |
| CGACGTGCGTCATGTGCTG+CAGCACATTCCGCACGTCG (((((((((..((((((((+))))))))..))))))))) | 52.8 |
| CGACGTGCGTCATGTGCTG+CAGCACATTCGGCACGTCG ((((((((...((((((((+))))))))...)))))))) | 48.7 |
| CGACGTGCGTCATGTGCTG+CAGCACATTCTGCACGTCG ((((((((...((((((((+))))))))...)))))))) | 49.2 |
| CGACGTGCGTCATGTGCTG+CAGCACATTGCGCACGTCG (((((((((..((((((((+))))))))..))))))))) | 54.7 |
| CGACGTGCGTCATGTGCTG+CAGCACATTTAGCACGTCG ((((((((...((((((((+))))))))...)))))))) | 51.6 |
| CGACGTGCGTCATGTGCTG+CAGCACATTTGGCACGTCG ((((((((...((((((((+))))))))...)))))))) | 48.7 |
| CGACGTGCGTCATGTGCTG+CAGCACATTTTGCACGTCG ((((((((...((((((((+))))))))...)))))))) | 48.4 |
| CGACGTGCGTGATGTGCTG+CAGCACATAATGCACGTCG ((((((((.(.((((((((+)))))))).).)))))))) | 52.9 |
| CGACGTGCGTGATGTGCTG+CAGCACATACCGCACGTCG (((((((((..((((((((+))))))))..))))))))) | 55.3 |
| CGACGTGCGTGATGTGCTG+CAGCACATACGGCACGTCG ((((((((...((((((((+))))))))...)))))))) | 51.1 |
| CGACGTGCGTGATGTGCTG+CAGCACATACTGCACGTCG ((((((((...((((((((+))))))))...)))))))) | 51.1 |
| CGACGTGCGTGATGTGCTG+CAGCACATAGGGCACGTCG ((((((((...((((((((+))))))))...)))))))) | 50.6 |
| CGACGTGCGTGATGTGCTG+CAGCACATATAGCACGTCG ((((((((...((((((((+))))))))...)))))))) | 52.5 |
| CGACGTGCGTGATGTGCTG+CAGCACATATGGCACGTCG ((((((((...((((((((+))))))))...)))))))) | 50 |

| Substance | Tm [°C] |
| --- | --- |
| CGACGTGCGTGATGTGCTG+CAGCACATCAAGCACGTCG ((((((((.((((((((((+)))))))))).)))))))) | 58.6 |
| CGACGTGCGTGATGTGCTG+CAGCACATCCCGCACGTCG (((((((((.(((((((((+))))))))).))))))))) | 59.4 |
| CGACGTGCGTGATGTGCTG+CAGCACATCCGGCACGTCG ((((((((..(((((((((+)))))))))..)))))))) | 55.7 |
| CGACGTGCGTGATGTGCTG+CAGCACATCCTGCACGTCG ((((((((..(((((((((+)))))))))..)))))))) | 55.6 |
| CGACGTGCGTGATGTGCTG+CAGCACATCGAGCACGTCG ((((((((..(((((((((+)))))))))..)))))))) | 58.6 |
| CGACGTGCGTGATGTGCTG+CAGCACATCGGGCACGTCG ((((((((..(((((((((+)))))))))..)))))))) | 57.5 |
| CGACGTGCGTGATGTGCTG+CAGCACATCTGGCACGTCG ((((((((..(((((((((+)))))))))..)))))))) | 55.7 |
| CGACGTGCGTGATGTGCTG+CAGCACATCTTGCACGTCG ((((((((..(((((((((+)))))))))..)))))))) | 55.6 |
| CGACGTGCGTGATGTGCTG+CAGCACATGAAGCACGTCG ((((((((.(.((((((((+)))))))).).)))))))) | 54 |
| CGACGTGCGTGATGTGCTG+CAGCACATGATGCACGTCG ((((((((.(.((((((((+)))))))).).)))))))) | 54 |
| CGACGTGCGTGATGTGCTG+CAGCACATGCCGCACGTCG (((((((((..((((((((+))))))))..))))))))) | 54.7 |
| CGACGTGCGTGATGTGCTG+CAGCACATGCTGCACGTCG ((((((((...((((((((+))))))))...)))))))) | 49.8 |
| CGACGTGCGTGATGTGCTG+CAGCACATGGTGCACGTCG ((((((((...((((((((+))))))))...)))))))) | 47.8 |
| CGACGTGCGTGATGTGCTG+CAGCACATGTCGCACGTCG (((((((((..((((((((+))))))))..))))))))) | 55.2 |
| CGACGTGCGTGATGTGCTG+CAGCACATGTTGCACGTCG ((((((((...((((((((+))))))))...)))))))) | 50 |
| CGACGTGCGTGATGTGCTG+CAGCACATTACGCACGTCG ((((((((((.((((((((+)))))))).)))))))))) | 60.4 |
| CGACGTGCGTGATGTGCTG+CAGCACATTAGGCACGTCG ((((((((.(.((((((((+)))))))).).)))))))) | 54.1 |
| CGACGTGCGTGATGTGCTG+CAGCACATTCGGCACGTCG ((((((((...((((((((+))))))))...)))))))) | 51.5 |
| CGACGTGCGTGATGTGCTG+CAGCACATTTGGCACGTCG ((((((((...((((((((+))))))))...)))))))) | 50.4 |
| CGACGTGCGTTATGTGCTG+CAGCACATACTGCACGTCG ((((((((..(((((((((+)))))))))..)))))))) | 51.6 |
| CGACGTGCGTTATGTGCTG+CAGCACATAGCGCACGTCG (((((((((.(((((((((+))))))))).))))))))) | 58.3 |
| CGACGTGCGTTATGTGCTG+CAGCACATAGGGCACGTCG ((((((((..(((((((((+)))))))))..)))))))) | 52.5 |
| CGACGTGCGTTATGTGCTG+CAGCACATATCGCACGTCG (((((((((.(((((((((+))))))))).))))))))) | 56.5 |
| CGACGTGCGTTATGTGCTG+CAGCACATATGGCACGTCG ((((((((..(((((((((+)))))))))..)))))))) | 51.1 |

| Substance | Tm [°C] |
| --- | --- |
| CGACGTGCGTTATGTGCTG+CAGCACATCACGCACGTCG ((((((((((.((((((((+)))))))).)))))))))) | 56.8 |
| CGACGTGCGTTATGTGCTG+CAGCACATCAGGCACGTCG ((((((((.(.((((((((+)))))))).).)))))))) | 49.9 |
| CGACGTGCGTTATGTGCTG+CAGCACATCCAGCACGTCG ((((((((...((((((((+))))))))...)))))))) | 49.6 |
| CGACGTGCGTTATGTGCTG+CAGCACATCCCGCACGTCG (((((((((..((((((((+))))))))..))))))))) | 51.7 |
| CGACGTGCGTTATGTGCTG+CAGCACATCGAGCACGTCG ((((((((...((((((((+))))))))...)))))))) | 52.2 |
| CGACGTGCGTTATGTGCTG+CAGCACATCGCGCACGTCG (((((((((..((((((((+))))))))..))))))))) | 54.6 |
| CGACGTGCGTTATGTGCTG+CAGCACATGACGCACGTCG ((((((((((.((((((((+)))))))).)))))))))) | 58.9 |
| CGACGTGCGTTATGTGCTG+CAGCACATGCCGCACGTCG (((((((((..((((((((+))))))))..))))))))) | 53.7 |
| CGACGTGCGTTATGTGCTG+CAGCACATGCGGCACGTCG ((((((((...((((((((+))))))))...)))))))) | 49.6 |
| CGACGTGCGTTATGTGCTG+CAGCACATGGAGCACGTCG ((((((((...((((((((+))))))))...)))))))) | 54.8 |
| CGACGTGCGTTATGTGCTG+CAGCACATGGCGCACGTCG (((((((((..((((((((+))))))))..))))))))) | 57.5 |
| CGACGTGCGTTATGTGCTG+CAGCACATGGTGCACGTCG ((((((((...((((((((+))))))))...)))))))) | 48.3 |
| CGACGTGCGTTATGTGCTG+CAGCACATGTGGCACGTCG ((((((((...((((((((+))))))))...)))))))) | 49.6 |
| CGACGTGCGTTATGTGCTG+CAGCACATTACGCACGTCG ((((((((((.((((((((+)))))))).)))))))))) | 58.6 |
| CGACGTGCGTTATGTGCTG+CAGCACATTAGGCACGTCG ((((((((.(.((((((((+)))))))).).)))))))) | 52.2 |
| CGACGTGCGTTATGTGCTG+CAGCACATTATGCACGTCG ((((((((.(.((((((((+)))))))).).)))))))) | 53 |
| CGACGTGCGTTATGTGCTG+CAGCACATTGAGCACGTCG ((((((((...((((((((+))))))))...)))))))) | 54 |
| CGACGTGCGTTATGTGCTG+CAGCACATTGGGCACGTCG ((((((((...((((((((+))))))))...)))))))) | 50.3 |
| CGACGTGCTAAATGTGCTG+CAGCACATAAAGCACGTCG (((((((((..((((((((+))))))))..))))))))) | 53.1 |
| CGACGTGCTAAATGTGCTG+CAGCACATAATGCACGTCG ((((((((...((((((((+))))))))...)))))))) | 50.7 |
| CGACGTGCTAAATGTGCTG+CAGCACATACTGCACGTCG ((((((((...((((((((+))))))))...)))))))) | 49.7 |
| CGACGTGCTAAATGTGCTG+CAGCACATAGTGCACGTCG ((((((((...((((((((+))))))))...)))))))) | 45.2 |
| CGACGTGCTAAATGTGCTG+CAGCACATATGGCACGTCG ((((((((.(.((((((((+)))))))).).)))))))) | 52 |
| CGACGTGCTAAATGTGCTG+CAGCACATCACGCACGTCG ((((((((...((((((((+))))))))...)))))))) | 49 |
